The results in this text go back to the supplement of paper PMC10126150.

± gives the standard deviation of the averaged measurements.
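Note: ATP exposure 15 min at 22 °C before imaging.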

This series has as its system ATP. Briefly: switch fluorescence ratio, 500 uM ATP over buffer (Cy3 cluster intensity, sum of 5 cycles each) (fold (ratio)); higher = stronger signal-on switching upon ATP binding; sequences stand for … in TCGTCGGCAGCGTCAGATGTGTATAAGAGACAGTTTTTTTTTTTTTTTTTTTTTTTTT…TC. As to conditions: aptamer strand: ATP DNA aptamer (quencher-CACCTGGGGGAGTATTGCGGAGGAAGG + anchor), 100 nM annealed; ATP concentration: 500 uM. The method in brief: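 Cy3-labelled switching-strand clusters on a modified Illumina MiSeq flow-cell were annealed to 100 nM quencher-labelled ATP aptamer, imaged in selection buffer, then imaged after 15 min with 500 uM ATP at 22 °C. Five buffer/ATP cycles ran, with NaOH stripping and re-annealing between them. The fluorescence ratio is summed target-cycle over summed buffer-cycle Cy3 intensity per cluster, averaged per switch-domain sequence. Clusters outside 100-1000 RFU were excluded.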
Take ATGTTAGGGC: the switch fluorescence ratio was 0.975 ± 0.032. Consider TGGGTAATTT, for which the switch fluorescence ratio came out at 1.03 ± 0.055.

For the sequence TTATGATGAT, the switch fluorescence ratio is 1.006 ± 0.01. In the case of CGAATTAGTT, the switch fluorescence ratio came to 0.978 ± 0.045. To GCGAATATGC belongs 1.1 ± 0.038; to TTTTAGTTAA, 1.01 ± 0.03.

For CGGGGCAAAG, the switch fluorescence ratio is 1.96 ± 1.6. The value for GATGCCGGGG was 1.05 ± 0.095; that for ACGAAAGGTG was 1.58 ± 0.072; that for GCGGGGATGC was 1.03 ± 0.075. On to ATGATGAAGA, for which the switch fluorescence ratio was 1.02 ± 0.019. As to GCAGTCAAGC, the switch fluorescence ratio was found to be 1.08 ± 0.011. To TATCATTAGA belongs 1.01 ± 0.014; to GCGGGGCACA, 0.987 ± 0.022. For AGTAGGACTC, the switch fluorescence ratio is 1.01 ± 0.013. Turning to GCGAATTGGG, the switch fluorescence ratio amounted to 1.02 ± 0.024. Take AGTTCGTAGT: the switch fluorescence ratio is 1.03 ± 0.049.

As for TTTGTTGTGG, the switch fluorescence ratio was found to be 1.01 ± 0.048. For AATAGGGTGC, the switch fluorescence ratio turned out to be 1.07 ± 0.045.

On to TAAGGTGCTC, for which the switch fluorescence ratio amounted to 1.1 ± 0.01.

On to GGAGTCTAGG, for which the switch fluorescence ratio stood at 0.994 ± 0.031. To GCCGGGTCAG belongs 1.02 ± 0.026. Take CCTGGGTGGG: the switch fluorescence ratio is 1.12 ± 0.065.

Regarding CCAGGGGTTT, the switch fluorescence ratio is 2.66 ± 2.4. The value for AAAGTGGTTA was 1.01 ± 0.025. Consider CCGCTTAGAT, for which the switch fluorescence ratio amounted to 2.34 ± 0.23. Turning to TGGGGTATAT, the switch fluorescence ratio was determined as 0.996 ± 0.015. The value for TTACTGCGTA was 1.02 ± 0.015; that for TCGGGTCTGT was 0.979 ± 0.025; that for GTCGGGGGGT was 1 ± 0.025. To AGTGTGAGGT belongs 0.9858 ± 0.0091; to AGCGGAGAGT, 1 ± 0.029; to CGGCTGGAGT, 1.001 ± 0.0043.

Turning to AATTCAGTGT, the switch fluorescence ratio is 1.01 ± 0.025.

In the case of CTGTTTAGTG, the switch fluorescence ratio was determined as 0.9822 ± 0.0061. Regarding TATAAAAGGC, the switch fluorescence ratio was found to be 0.978 ± 0.045. As for GACGGCAATG, the switch fluorescence ratio was determined as 1.05 ± 0.032.

GGGATTGGGC: the switch fluorescence ratio was determined as 0.992 ± 0.022.

Take CTAATTGCAA: the switch fluorescence ratio amounted to 1.05 ± 0.066. In the case of CGATCCCATT, the switch fluorescence ratio was determined as 1.05 ± 0.037.

As to GGAGAGGGTA, the switch fluorescence ratio amounted to 1.01 ± 0.035. To GTTTAAGCGG belongs 0.969 ± 0.034; to GGAAGTAGGA, 0.98839 ± 0.00067; to AAGAGTTGAC, 0.947 ± 0.059.

For CGCTAGGGAA, the switch fluorescence ratio was 1.03 ± 0.045.

For the sequence ATTTATTTAG, the switch fluorescence ratio stood at 0.987 ± 0.022. To GGGGGTTCGG belongs 0.992 ± 0.021. With CTTTTAACGA, the switch fluorescence ratio came out at 1.01 ± 0.03. For the sequence TAAGTTTGGG, the switch fluorescence ratio came to 0.968 ± 0.04. Turning to AACGGGTGAG, the switch fluorescence ratio was 0.9856 ± 0.0092.

For the sequence GTGGCCAACC, the switch fluorescence ratio was 1.02 ± 0.0022. To TAAGGAGGTC belongs 0.99 ± 0.031; to AAGGGATTTT, 0.999 ± 0.062; to TCAATGTTGG, 0.988 ± 0.025. Take ATGTTTTAAA: the switch fluorescence ratio worked out at 0.9756 ± 0.0086. To TTGTGTTAGG belongs 0.994 ± 0.031; to CTCCTAAAGA, 1.05 ± 0.013. Take GACTTGTTGG: the switch fluorescence ratio stood at 0.974 ± 0.042. To GAGGGAGTTG belongs 0.997 ± 0.017; to GTGGTACACG, 1.01 ± 0.026. With TCTTGCGTCG, the switch fluorescence ratio came to 0.976 ± 0.023. In the case of AAGTAGGTGC, the switch fluorescence ratio came out at 1.13 ± 0.02. Regarding GGGAGAGGTT, the switch fluorescence ratio was 0.987 ± 0.032. The value for ATTTTATGCG was 0.985 ± 0.023. To AATGGTTAAG belongs 1 ± 0.054.

With TATGGAATGC, the switch fluorescence ratio was determined as 1.35 ± 0.076. To GAGGCATTTT belongs 1.09 ± 0.089; to TGACACATGA, 1.02 ± 0.013; to TGGAGGTTTT, 1.07 ± 0.045. Consider GGGGAGTGG, for which the switch fluorescence ratio is 1.01 ± 0.025. To GGTTTTCTTT belongs 1 ± 0.035; to ATGAAGTTTT, 1.02 ± 0.028. The value for TTACAAGGAT was 0.997 ± 0.012; that for TGTCGGATTT was 1.13 ± 0.24; that for CGGTGGACGA was 0.9977 ± 0.005. TATCGGATTC: the switch fluorescence ratio came to 1.02 ± 0.02. The value for GAGAACGGTG was 1 ± 0.032; that for GAAGGGGTCG was 1.05 ± 0.046.
